The record followed here is paper PMC9719539, “Single-molecule characterization of subtype-specific β1 integrin mechanics” (Nature Communications, 2022).

Assay [1] deals with integrin αVβ5, intact, on K562 αVβ5 stable transfectants (human) (UniProt P06756). Description: flow cytometry on cells; saturation binding of cRGDfK-TF5WS to K562 transfectants in L15 medium with 1% BSA and 1 mM Mn2+, no washing; background MFI measured with 10 mM EDTA and subtracted. Background: Flow cytometry measures light scatter and fluorescence of single cells or particles in a stream.
integrin αVβ5, intact, on K562 αVβ5 stable transfectants (human), sequence (P06756 31-1048, chain 1 of 2): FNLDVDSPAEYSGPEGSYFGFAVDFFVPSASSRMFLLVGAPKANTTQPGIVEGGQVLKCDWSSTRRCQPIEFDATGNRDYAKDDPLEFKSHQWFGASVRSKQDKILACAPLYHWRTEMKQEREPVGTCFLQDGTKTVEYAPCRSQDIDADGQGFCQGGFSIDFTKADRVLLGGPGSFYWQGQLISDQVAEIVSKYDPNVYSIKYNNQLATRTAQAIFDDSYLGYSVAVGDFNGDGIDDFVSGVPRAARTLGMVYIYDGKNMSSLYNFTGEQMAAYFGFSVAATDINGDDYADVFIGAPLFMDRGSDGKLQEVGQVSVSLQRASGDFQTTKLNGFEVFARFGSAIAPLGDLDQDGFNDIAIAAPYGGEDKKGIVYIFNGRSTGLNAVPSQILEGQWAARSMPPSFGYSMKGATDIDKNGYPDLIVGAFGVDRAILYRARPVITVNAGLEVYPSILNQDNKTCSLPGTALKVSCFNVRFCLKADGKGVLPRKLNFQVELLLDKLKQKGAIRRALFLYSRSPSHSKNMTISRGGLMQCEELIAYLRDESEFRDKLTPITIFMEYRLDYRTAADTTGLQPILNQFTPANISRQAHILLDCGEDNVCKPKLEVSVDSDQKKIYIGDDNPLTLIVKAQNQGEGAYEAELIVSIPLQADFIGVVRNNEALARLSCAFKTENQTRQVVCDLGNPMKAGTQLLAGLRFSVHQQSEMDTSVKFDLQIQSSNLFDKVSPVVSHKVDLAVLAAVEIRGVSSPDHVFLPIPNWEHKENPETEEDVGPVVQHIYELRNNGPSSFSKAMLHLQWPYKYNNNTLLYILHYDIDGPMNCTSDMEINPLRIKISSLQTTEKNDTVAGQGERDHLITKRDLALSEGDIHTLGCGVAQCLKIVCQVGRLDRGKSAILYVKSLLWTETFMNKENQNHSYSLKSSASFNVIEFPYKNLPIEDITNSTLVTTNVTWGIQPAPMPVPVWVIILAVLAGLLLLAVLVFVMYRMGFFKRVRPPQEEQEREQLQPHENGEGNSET
integrin αVβ5, intact, on K562 αVβ5 stable transfectants (human), sequence (P18084 24-799, chain 2 of 2, further chain): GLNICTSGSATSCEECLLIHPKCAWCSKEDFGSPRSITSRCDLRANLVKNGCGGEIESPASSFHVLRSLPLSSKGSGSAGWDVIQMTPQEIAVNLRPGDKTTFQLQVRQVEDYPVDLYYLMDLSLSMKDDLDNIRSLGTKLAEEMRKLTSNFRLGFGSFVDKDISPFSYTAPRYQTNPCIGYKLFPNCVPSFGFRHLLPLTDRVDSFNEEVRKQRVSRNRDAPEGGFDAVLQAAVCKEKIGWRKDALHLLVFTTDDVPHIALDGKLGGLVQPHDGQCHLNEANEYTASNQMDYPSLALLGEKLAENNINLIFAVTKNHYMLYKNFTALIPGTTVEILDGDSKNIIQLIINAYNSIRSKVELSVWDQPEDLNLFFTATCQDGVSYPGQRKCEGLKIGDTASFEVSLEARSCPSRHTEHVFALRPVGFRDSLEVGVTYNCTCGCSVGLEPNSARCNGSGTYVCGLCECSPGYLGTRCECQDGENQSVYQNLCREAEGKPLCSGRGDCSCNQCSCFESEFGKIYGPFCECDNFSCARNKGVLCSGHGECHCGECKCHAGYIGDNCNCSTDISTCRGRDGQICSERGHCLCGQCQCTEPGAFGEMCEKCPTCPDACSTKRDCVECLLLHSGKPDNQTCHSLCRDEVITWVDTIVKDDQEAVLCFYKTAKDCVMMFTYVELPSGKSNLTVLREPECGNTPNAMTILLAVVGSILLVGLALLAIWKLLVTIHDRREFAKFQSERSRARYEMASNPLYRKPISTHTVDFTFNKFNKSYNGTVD

Assay [2] has as its target integrin αVβ3, intact, on K562 αVβ3 stable transfectants (human) (UniProt P06756). The assay is described as above.
Assay [3] addresses integrin α5β1, intact, on wild type K562 cells (human (endogenous in K562)) (UniProt P08648). Description: flow cytometry on cells; saturation binding of cRGDfK-TF5WS to K562 cells in L15 with 2 µM 12G10 Fab, which stabilizes the EO state (intrinsic affinity for the EO state); no washing.

integrin α5β1, intact, on wild type K562 cells (human (endogenous in K562)), sequence (P08648 42-1049, chain 1 of 2): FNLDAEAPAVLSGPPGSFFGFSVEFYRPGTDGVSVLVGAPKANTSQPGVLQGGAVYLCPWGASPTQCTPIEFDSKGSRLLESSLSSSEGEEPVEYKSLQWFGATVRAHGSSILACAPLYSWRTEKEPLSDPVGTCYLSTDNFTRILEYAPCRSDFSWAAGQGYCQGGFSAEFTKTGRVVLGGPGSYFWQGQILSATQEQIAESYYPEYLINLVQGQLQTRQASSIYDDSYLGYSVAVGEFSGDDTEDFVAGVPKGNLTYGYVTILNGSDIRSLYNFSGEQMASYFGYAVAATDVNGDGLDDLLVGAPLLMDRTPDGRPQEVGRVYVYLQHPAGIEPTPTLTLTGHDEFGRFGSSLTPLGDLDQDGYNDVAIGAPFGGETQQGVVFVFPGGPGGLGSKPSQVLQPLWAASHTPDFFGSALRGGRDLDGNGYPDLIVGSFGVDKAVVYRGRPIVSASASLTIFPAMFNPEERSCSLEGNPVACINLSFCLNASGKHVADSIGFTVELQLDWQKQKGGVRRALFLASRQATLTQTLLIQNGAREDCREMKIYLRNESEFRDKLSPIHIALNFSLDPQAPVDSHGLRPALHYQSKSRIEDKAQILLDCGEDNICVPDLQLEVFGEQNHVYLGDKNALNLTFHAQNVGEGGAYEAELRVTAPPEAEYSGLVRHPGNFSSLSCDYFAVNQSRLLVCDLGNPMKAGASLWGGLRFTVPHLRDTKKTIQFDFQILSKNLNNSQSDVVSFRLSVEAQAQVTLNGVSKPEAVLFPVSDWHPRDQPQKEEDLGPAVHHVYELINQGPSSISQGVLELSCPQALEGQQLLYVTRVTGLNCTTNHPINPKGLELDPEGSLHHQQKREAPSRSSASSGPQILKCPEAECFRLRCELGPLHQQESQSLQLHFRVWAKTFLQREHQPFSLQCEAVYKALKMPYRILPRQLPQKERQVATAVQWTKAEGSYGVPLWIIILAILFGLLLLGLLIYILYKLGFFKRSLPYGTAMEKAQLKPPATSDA
integrin α5β1, intact, on wild type K562 cells (human (endogenous in K562)), sequence (P05556 21-798, chain 2 of 2, further chain): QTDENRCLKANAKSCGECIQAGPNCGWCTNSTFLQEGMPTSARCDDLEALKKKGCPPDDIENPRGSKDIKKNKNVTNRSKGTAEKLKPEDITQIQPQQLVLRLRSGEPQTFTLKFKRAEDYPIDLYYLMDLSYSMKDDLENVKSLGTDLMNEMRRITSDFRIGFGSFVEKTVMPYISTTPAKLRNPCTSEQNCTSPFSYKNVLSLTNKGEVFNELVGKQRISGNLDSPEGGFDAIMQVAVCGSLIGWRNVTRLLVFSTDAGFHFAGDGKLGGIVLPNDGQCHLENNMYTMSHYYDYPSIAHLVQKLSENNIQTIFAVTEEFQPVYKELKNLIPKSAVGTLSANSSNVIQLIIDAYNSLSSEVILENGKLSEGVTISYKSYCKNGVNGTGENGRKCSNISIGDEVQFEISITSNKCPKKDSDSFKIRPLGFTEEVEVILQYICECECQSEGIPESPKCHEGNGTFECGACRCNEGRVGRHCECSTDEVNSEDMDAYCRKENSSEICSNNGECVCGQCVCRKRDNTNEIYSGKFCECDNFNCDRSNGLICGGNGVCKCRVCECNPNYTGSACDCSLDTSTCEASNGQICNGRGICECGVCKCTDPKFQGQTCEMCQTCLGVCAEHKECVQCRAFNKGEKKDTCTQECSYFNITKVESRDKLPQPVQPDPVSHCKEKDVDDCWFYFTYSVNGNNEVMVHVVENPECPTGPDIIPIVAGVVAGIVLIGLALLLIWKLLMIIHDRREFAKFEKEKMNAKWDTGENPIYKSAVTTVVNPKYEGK
integrin αVβ3, intact, on K562 αVβ3 stable transfectants (human), sequence (P06756 31-1048, chain 1 of 2): as the sequence (P06756 31-1048, chain 1 of 2) above
integrin αVβ3, intact, on K562 αVβ3 stable transfectants (human), sequence (P05106 27-788, chain 2 of 2, further chain): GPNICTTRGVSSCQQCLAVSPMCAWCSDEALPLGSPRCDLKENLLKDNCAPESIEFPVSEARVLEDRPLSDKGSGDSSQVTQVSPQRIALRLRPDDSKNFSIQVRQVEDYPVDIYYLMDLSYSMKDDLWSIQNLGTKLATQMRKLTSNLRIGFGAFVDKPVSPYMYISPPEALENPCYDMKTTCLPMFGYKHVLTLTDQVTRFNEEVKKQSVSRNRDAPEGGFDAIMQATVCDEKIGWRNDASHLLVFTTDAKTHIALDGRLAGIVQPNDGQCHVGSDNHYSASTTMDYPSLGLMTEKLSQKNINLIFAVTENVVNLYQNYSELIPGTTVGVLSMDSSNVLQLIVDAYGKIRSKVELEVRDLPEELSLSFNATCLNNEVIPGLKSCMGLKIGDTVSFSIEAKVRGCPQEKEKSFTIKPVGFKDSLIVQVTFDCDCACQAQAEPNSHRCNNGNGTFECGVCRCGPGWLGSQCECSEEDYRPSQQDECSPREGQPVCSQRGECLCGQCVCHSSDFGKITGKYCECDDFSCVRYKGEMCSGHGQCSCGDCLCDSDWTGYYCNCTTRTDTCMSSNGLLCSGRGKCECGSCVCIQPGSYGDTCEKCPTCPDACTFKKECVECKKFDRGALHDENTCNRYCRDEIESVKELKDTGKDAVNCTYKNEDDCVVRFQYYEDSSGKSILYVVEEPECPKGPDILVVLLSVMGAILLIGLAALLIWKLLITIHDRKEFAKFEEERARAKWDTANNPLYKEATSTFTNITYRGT

By Kd is commonly meant the concentration at which binding is half-saturated. Low readings indicate a tighter complex, high ones a looser complex. Regarding “cRGDfK peptide with lysine side chain conjugated with TideFluor5WS”, the Kd in assay [1] came out at 23.9 nM; in assay [2], 28.3 nM; in assay [3] it was 86 nM.
